Assay results taken from US7405286B2, “Stars—A muscle-specific actin-binding protein” (The Board of Regents of the University of Texas System, priority 2002, dated 2008).
“Also recorded” adds a separate entry of the source.

B1: Del234-247: small internal STARS deletion mutant within the conserved region (protein)
chain: MAPGEKESGEGPAKSALRKIRTATLVISLARGWQQWANENSIRQAQEPTGWLPGGTQDSPQAPKPITPPTSHQKAQSAPKSPPRLPEGHGDGQSSEKAPEVSHIKKKEVSKTVVSKTYERGGDVSHLSHRYERDAGVLEPGQPENDIDRILHSHGSPTRRRKCANLVSELTKGWRVMEQEEPTWRSDSVDTEDSGYGGEAEERPEQDGVQVAVVRIKRPLPSQVNRFTEKLNCRWQQWADEHIQSQKLNPFSEEFDYELAMSTRLHKGDEGYGRPKEGTKTAERAKRAEEHIYREMMDMCFIICTMARHRRDGKIQVTFGDLFDRYVRISDKVVGILMRARKHGLVDFEGEMLWQGRDDHV
modifications: left off: small tags and cut ends
notes: small internal STARS deletion mutant within the conserved region
B2: C142: STARS deletion mutant that encoded only the conserved carboxy-terminal region (142 amino acids) (protein)
chain: KAQQKYSPVGNLKGRWQQWADEHIQSQKLNPFSEEFDYELAMSTRLHKGDEGYGRPKEGTKTAERAKRAEEHIYREMMDMCFIICTMARHRRDGKIQVTFGDLFDRYVRISDKVVGILMRARKHGLVDFEGEMLWQGRDDHV
modifications: left off: small tags and cut ends
B3: N233: STARS deletion mutant lacking residues from the carboxy-terminus into the conserved region (protein)
chain: MAPGEKESGEGPAKSALRKIRTATLVISLARGWQQWANENSIRQAQEPTGWLPGGTQDSPQAPKPITPPTSHQKAQSAPKSPPRLPEGHGDGQSSEKAPEVSHIKKKEVSKTVVSKTYERGGDVSHLSHRYERDAGVLEPGQPENDIDRILHSHGSPTRRRKCANLVSELTKGWRVMEQEEPTWRSDSVDTEDSGYGGEAEERPEQDGVQVAVVRIKRPLPSQVNRFTEKLNC
modifications: left off: small tags and cut ends
notes: STARS deletion mutant lacking residues from the carboxy-terminus into the conserved region
B4: N100: STARS deletion mutant lacking residues from the carboxy-terminus into the conserved region (protein)
chain: MAPGEKESGEGPAKSALRKIRTATLVISLARGWQQWANENSIRQAQEPTGWLPGGTQDSPQAPKPITPPTSHQKAQSAPKSPPRLPEGHGDGQSSEKAPE
modifications: left off: small tags and cut ends
notes: as for B3
B5: N279: STARS deletion mutant lacking residues from the carboxy-terminus into the conserved region (protein)
chain: MAPGEKESGEGPAKSALRKIRTATLVISLARGWQQWANENSIRQAQEPTGWLPGGTQDSPQAPKPITPPTSHQKAQSAPKSPPRLPEGHGDGQSSEKAPEVSHIKKKEVSKTVVSKTYERGGDVSHLSHRYERDAGVLEPGQPENDIDRILHSHGSPTRRRKCANLVSELTKGWRVMEQEEPTWRSDSVDTEDSGYGGEAEERPEQDGVQVAVVRIKRPLPSQVNRFTEKLNCKAQQKYSPVGNLKGRWQQWADEHIQSQKLNPFSEEFDYELAMSTRL
modifications: left off: small tags and cut ends
notes: as for B3
B6: N101-233: STARS deletion mutant lacking residues from the carboxy-terminus into the conserved region (protein)
chain: VSHIKKKEVSKTVVSKTYERGGDVSHLSHRYERDAGVLEPGQPENDIDRILHSHGSPTRRRKCANLVSELTKGWRVMEQEEPTWRSDSVDTEDSGYGGEAEERPEQDGVQVAVVRIKRPLPSQVNRFTEKLNC
modifications: left off: small tags and cut ends
notes: as for B3
B7: N323: STARS deletion mutant lacking residues from the carboxy-terminus into the conserved region (protein)
chain: MAPGEKESGEGPAKSALRKIRTATLVISLARGWQQWANENSIRQAQEPTGWLPGGTQDSPQAPKPITPPTSHQKAQSAPKSPPRLPEGHGDGQSSEKAPEVSHIKKKEVSKTVVSKTYERGGDVSHLSHRYERDAGVLEPGQPENDIDRILHSHGSPTRRRKCANLVSELTKGWRVMEQEEPTWRSDSVDTEDSGYGGEAEERPEQDGVQVAVVRIKRPLPSQVNRFTEKLNCKAQQKYSPVGNLKGRWQQWADEHIQSQKLNPFSEEFDYELAMSTRLHKGDEGYGRPKEGTKTAERAKRAEEHIYREMMDMCFIICTMARH
modifications: left off: small tags and cut ends
notes: as for B3
B8: N304: STARS deletion mutant lacking residues from the carboxy-terminus into the conserved region (protein)
chain: MAPGEKESGEGPAKSALRKIRTATLVISLARGWQQWANENSIRQAQEPTGWLPGGTQDSPQAPKPITPPTSHQKAQSAPKSPPRLPEGHGDGQSSEKAPEVSHIKKKEVSKTVVSKTYERGGDVSHLSHRYERDAGVLEPGQPENDIDRILHSHGSPTRRRKCANLVSELTKGWRVMEQEEPTWRSDSVDTEDSGYGGEAEERPEQDGVQVAVVRIKRPLPSQVNRFTEKLNCKAQQKYSPVGNLKGRWQQWADEHIQSQKLNPFSEEFDYELAMSTRLHKGDEGYGRPKEGTKTAERAKRAEE
modifications: left off: small tags and cut ends
notes: as for B3

system: SM22 promoter; test: SM22-luciferase reporter assay in transiently transfected COS cells; assay type: cell-based; conditions: COS cells, STARS and deletion mutants
Source text: STARS Expression Plasmids. STARS expression constructs were generated using the pcDNA3.1 mammalian expression vector (Invitrogen) which was modified to contain an amino-terminal Myc-tag. Constitutively active RhoA (L63) and C3 transferase in Prk5 were generously provided by Dr. Alan Hall (University College, London, United Kingdom). The SM22-luciferase reporter 1343 bp promoter has been previously described (Li et al., 1995). The smooth muscle α actin-luciferase reporter contained the 4 kb promoter region ligated into the pBL3basic vector (Promega). The ANF reporter contained the 638 bp promoter region (a generous gift from Dr. Mona Nemer, Universite de Montreal, Montreal, Quebec, Canada). The 4× cfos reporter contained four tandem copies of the cfos CArG box with flanking sequences, as described (Chang et al., 2001). CMV-lacZ (Promega) was used as an internal control for transfection efficiency.
(§1) Transient Transfections, Reporter Assays and Immunofluorescence Microscopy. COS cells were maintained in DMEM with 10% FBS. Eighteen hours after plating, the medium was changed to serum-free medium and transfections were performed at 50% confluency using FuGENE reagent-6 (Roche Molecular Biochemicals) following manufacturer's instructions. Each transfection used 0.15 μg of plasmid DNA for the reporter assays, and 0.5-1.0 μg immunohistochemistry. Cytochalasin D 2 μM (Sigma-Aldrich), and Y-27632 75 μM (Tocris) were added directly just after transfection. Latrunculin B 0.5 μM (dissolved in 10% ethanol, Calbiochem) was added 12 hr after transfection and 10% ethanol (final concentration 0.01%) was added to control wells. Cells were harvested 36 hr after transfection and their luciferase and β-galactosidase activity were measured.

| Molecule | activation of SM22-luciferase / SRF transcription, in words |
| --- | --- |
| B1 | activate SRF transcription |
| B2 | as effective as the full-length protein; also recorded: activate SRF transcription |

system: F-actin; test: Immunofluorescence / Phalloidin-TRITC staining of transfected COS cells; assay type: cell-based; conditions: transfected COS cells, Myc-tagged proteins
Procedure: as §1
For measuring immunofluorescence, cells were rinsed with PBS and fixed in 4% paraformaldehyde for 10 min on ice. After rinsing with PBS, COS cells were incubated in 0.1% Triton X-100 in PBS for 5 min on ice. For rat neonatal cardiomyocytes, 1% Triton X-100 in PBS was used. Cells were blocked for 20 min at room temperature in 0.5% BSA in PBS for COS cells and in 1% BSA plus 3% goat serum in PBS for rat cardiomyocytes. Then, cells were incubated with first antibody diluted in 0.5% BSA in PBS for 30-60 min at room temperature or overnight at 4° C. Anti c-myc monoclonal antibody 9E10 (Santa Cruz) was used at a 1:200 dilution. Other antibodies were anti α-actinin monoclonal antibody (1:400; Sigma-Aldrich), α-tubulin antibody (1:2000; Sigma-Aldrich) and anti-vimentin antibody (1:500; Sigma-Aldrich). Secondary antibodies were anti mouse/rabbit IgG FITC or Texas red (Vector) used at a 1:200 dilution incubated with or without Phalloidin-TRITC (1:500; Sigma Aldrich).

| Molecule | association with F-actin / actin stress fibers | bundling of actin stress fibers |
| --- | --- | --- |
| B3 | did not affect the association with F-actin | abolished the ability of STARS to bundle actin stress fibers |
| B1 |  | induce actin bundles |
| B4 | did not affect the association with F-actin | abolished the ability of STARS to bundle actin stress fibers |
| B2 | associated with F-actin | increased stress fibers; also recorded: induce actin bundles |
| B5 | did not affect the association with F-actin | abolished the ability of STARS to bundle actin stress fibers |
| B6 | did not affect the association with F-actin | abolished the ability of STARS to bundle actin stress fibers |
| B7 | did not affect the association with F-actin | abolished the ability of STARS to bundle actin stress fibers |
| B8 | did not affect the association with F-actin | abolished the ability of STARS to bundle actin stress fibers |

system: actin; test: Co-immunoprecipitation of Myc-tagged proteins with actin in COS cells; assay type: binding; conditions: anti-Myc immunoprecipitation, anti-actin Western blot
Procedure: Western Blot and Co-immunoprecipitation Assay. Immunoprecipitation and western blot analysis was performed as described previously (Lu et al., 2000). For immunoprecipitation, cells were incubated with 1 μg anti c-myc polyclonal antibody A14 (Santa Cruz). Western blots were performed with anti-actin monoclonal antibody C4 (1:100; Roche Molecular Biochemicals) or anti c-myc monoclonal antibody 9E10 (1:1000; Santa Cruse) followed by incubation with secondary antibody HRP-conjugated anti mouse-IgG (Santa Cruse, Vector). To detect signals, blots were incubated with ECL (Santa Cruz) for 1 min, and exposed to film (Eastman Kodak Co).

| Molecule | co-immunoprecipitation with actin |
| --- | --- |
| B3 | did not bind actin |
| B1 | weak actin-binding activity |
| B4 | did not bind actin |
| B2 | co-immunoprecipitated with actin |
| B5 | did not bind actin |
| B6 | did not bind actin |
| B7 | did not bind actin |
| B8 | did not bind actin |
